Measured values from publication PMC5612765.

Tests used:
[1] = tested on: T1, Fis (His-tagged) (Pseudomonas putida), ORF:eb421da7; assay: EMSA with competition; details: EMSA: 24 mM Tris/HCl pH 7.5, 50 mM KCl, 10 mM MgCl2, 1 mM CaCl2, 0.1 mM EDTA, 5% glycerol, 0.05 ug/ul BSA, 0.05 ug/ul salmon sperm DNA, 20 min room …
T1 sequence: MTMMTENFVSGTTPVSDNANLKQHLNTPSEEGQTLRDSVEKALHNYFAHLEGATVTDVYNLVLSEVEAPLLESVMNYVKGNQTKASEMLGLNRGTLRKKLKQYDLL

[2] = tested on: T1, Fis (His-tagged) (Pseudomonas putida), ORF:eb421da7; assay: DNase I footprinting; details: EMSA: 24 mM Tris/HCl pH 7.5, 50 mM KCl, 10 mM MgCl2, 1 mM CaCl2, 0.1 mM EDTA, 5% glycerol, 0.05 ug/ul BSA, 0.05 ug/ul salmon sperm DNA, 20 min room …

| Sequence | binding [1] | binding [2] |
| --- | --- | --- |
| AGGATCCGAAACGCTTGGCTAAGGTACAAATATCAATGTGACATTACATTGCCGATTGTTTAGGATGGCATGTATAAGCTGAATAGTTTGGAGGTCAGGCAATTCCAAAAAGTTATAGACGGAATATTGACGTCAAAAACGTCAAGAGATCATCGACATAGTTCCGCCTGAAGTGGCTAGCAAGCGCCGCTCTGGCAGGGAAGTACC (double strand) [Fis-A1-Fis-A2mut fragment] | binds more weakly |  |
| AGGATCCGAAACGCTTGGCTAAGGTACAAATATCAATGTGACATTACATTGCCGATTGTTTAGGATGGCATGTATAAGGTCAATAGTTTGGCAGTCAGGCAATTCCAAAAAGTTATAGACGGAATATTGACGTCACCCACGTGCCGAGATCATCGACATAGTTCCGCCTGAAGTGGCTAGCAAGCGCCGCTCTGGCAGGGAAGTACC (double strand) [Fis-A1mut-Fis-A2 fragment] | binds more weakly |  |
| GGTACTTCCCTGCCAGAGCGGCGCTTGCTAGCCACTTCAGGCGGAACTATGTCGATGATCTCTTGACGTTTTTGACGTCAATATTCCGTCTATAACTTTTTGGAATTGCCTGACTGCCAAACTATTGACCTTATACATGCCATCCTAAACAATCGGCAATGTAATGTCACATTGATATTTGTACCTTAGCCAAGCGTTTCGGATCCT (double strand) [lapA Fis-A1/Fis-A2 fragment WT] | binds | binds |
| TGCTGATAAGGGTTATCACGCCCTGGTGCTGGAGCAGCTGGCCAATGTTCGCCTTGAATCGGTGTTGAGTAAACAATTCTACGTGCTTCATTTTCACCAGACTTAGCGGGGCAATGATTCTGACAGGCCTGATCCAGCCATCATCCGGCTTGTTGCAGCATAGCCTGCCACTCAGCCAAGGCATGCAAGGGCTTTGGGTTCCAGCTTAGTCACTGTCAGTAAACAGGCGCTGGATCCA (double strand) [Fis-A7mut fragment] | binds more weakly |  |
| TGCTGATAAGGGTTATCACGCCCTGGTGCTGGAGCAGCTGGCCAATGTTCGCCTTGAATCGGTGTTGAGTAAACAATTCTACGTGCTTCATTTTCACCAGACTTAGCGGGGCAATGATTGTTTCATTTTTGATCCAGCCATCATCCGGCTTGTTGCAGCATAGCCTGCCACTCAGCCAAGGCATGCAAGGGCTTTGGGTTCCAGCTTAGTCACTGTCAGTAAACAGGCGCTGGATCCA (double strand) [lapA Fis-A7 fragment WT] | binds | binds |
| TTGAATTCATGCAAGGGCTTTGGGTTCCAGCTTAGTCACTGTCAGTAAACAGGCGCTGGTTTGTTGGCGCATATCTGTGGCTTGTTAGTCAAAATTCATCTATAGAGTGCGGATTCTTGCCTTCTTGCATTCAATATCCGCAAGCGATTTTCAATGATCGGGATACCATTATTCACGCACTCGTCGGTCATCTCTTTGATTTGCGACACATAGCTGCTTGTGACTCGGATCCAAA (double strand) [lapA Fis-A5/Fis-A6 fragment WT] | binds | binds |
| TTTGGATCCGAGTCACAAGCAGCTATGTGTCGCAAATCAAAGAGATGACCGACGAGTGCGTGAATAATGGTATCCCGATCATTGAAAATCGCTTGCGGAGGCTGACTGGGAGAAGGCAAGAATCCGCACTCTATAGATGAATTTTGACTAACAAGCCACAGATATGCGCCAACAAACCAGCGCCTGTTTACTGACAGTGACTAAGCTGGAACCCAAAGCCCTTGCATGAATTCAA (double strand) [Fis-A5mut-Fis-A6 fragment] | binds more weakly |  |
| TTTGGATCCGAGTCACAAGCAGCTATGTGTCGCAAATCAAAGAGATGACCGACGAGTGCGTGAATAATGGTATCCCGATCATTGAAAATCGCTTGCGGATATTGAATGCAAGAAGGCAAGAATCCGCACTCTATACACGTAGGCCGACTAACAAGCCACAGATATGCGCCAACAAACCAGCGCCTGTTTACTGACAGTGACTAAGCTGGAACCCAAAGCCCTTGCATGAATTCAA (double strand) [Fis-A5-Fis-A6mut fragment] | binds more weakly |  |
